In assay [1] the target is BmdC (Thermoactinomyces vulgaris F-5595). As to the kind of experiment: SEC; size-exclusion chromatography of BmdC alone (Supplementary Fig. 2e). In general terms: In gel filtration, larger molecules generally elute earlier.
Assay [2] addresses BmdB (Thermoactinomyces vulgaris F-5595). Put plainly: SEC; full-length BmdB and BmdC at 1–8 μM mixed (increasing BmdC, fixed BmdB), Superdex200 Increase 10/300, 50 mM Tris-HCl pH 7.5, 200 mM NaCl, 1 mM DTT.
Assay [3] has the same target.

In general, stoichiometry N refers to a count of units in the complex or per binding partner. Take BmdC (enzyme): the stoichiometry N in assay [1] was determined as 2. In assay [2], this substance came in with a stoichiometry N (BmdB molecules per BmdC dimer) of 2.
Turning to BmdC_D225R (enzyme), in assay [3], the decrease in oxidation to bacillamide D in peptide synthesis assays is 50%.

Values taken from paper PMC8795117.
